Test results as given in publication PMC9849103 (Nature Communications, 2023).

B1: C118 (antibody, V domains shown)
VH: QVQLVESGGGVVQPGRSLRLSCAASGFTFSNYAMHWVRQAPGKGLEWVAVISYDGSNKYYADSVKGRFTISRDNSKNTLYLQMNSLRAEDTAIYYCASGYTGYDYFVRGDYYGLDVWGQGTTVTVSS
VL: QPVLTQSPSASASLGASVKLTCTLSSGHSSYAIAWHQQQPEKGPRYLMKLNTDGSHSKGDGIPDRFSGSSSGAERYLTISSLQSEDEADYYCQTWGTGILVFGGGTKLTVL
notes: source: 293-6E cells, transfected, purified (Protein G Sepharose)
B2: C080 (antibody, V domains shown)
VH: EVQLVQSGAEVKKPGESLNISCKASGYSFTIYWIAWVRQLPGKGLEWMGIIYPGDSDTRYSPSFQGQVTISADKSISTAYLQWRSLKASDSAVYYCARGVAVDWYFDLWGRGTLVTVSS
VL: QSVLTQPPSVSGAPGQRVTISCAGSSSNIGAGFDVYWYQQLPGTAPKLLIYGNNNRPSGVPDRFSGSKSGTSASLAITGLQAEDEADYYCQSSGSVLSDLYVFGTGTKVTVL
notes: as for B1
B3: C3111 (antibody, V domains shown)
VH: EVQLVESGGRVVRPGESLRLSCAASGFNFNDYGMSWVRQVPGKGLEWVSGINWNGAISGYVDSVKGRFIISRDNAKNSLYLQMNSLRAEDTALYHCARAYCGDECYSLLVRGDALDIWGQGTMVTVSS
VL: QSVLTQPPSVSAAPGQTVTISCSGSSSNIGMNDVSWYQHLPGTAPKLLIYDSHKRPSGIPDRFSGSNSGTSATLGITGLQTGDEAHYYCGAWDSSLSAVVFGGGTMLAVL
notes: as for B1
B4: C1002 (antibody, V domains shown)
VH: EVQLVESGGGLVQPGGSLRLSCAASEFIVSSNYMTWVRQAPGKGLEWVSIMYPGGSTFYADSVKGRFTISRDNSKNTLYLQINRLRAEDTAVYYCARDIAGRLDYWGQGTLVTVSS
VL: DIQMTQSPSSLSASVGDRVTITCQASQDINNYLNWYQQKPGKAPKLLIYDASNLETGVPSRFSGSGSGTDFSFTISSLQPEDIATYYCQQYDNLSRLTFGGGTKVEIK
notes: as for B1
B5: C986 (antibody, V domains shown)
VH: EVQLVQSGAEVKKPGETLKISCKGSGDSFSNYWIGWVRQSPGKGLEWMAIVYPGDSDARYSPSFQGQVTISADKSVTTAYLKWSSLKASDTAIYYCVRGLPVDWYFDLWGRGTLVTVSS
VL: QSVLTQPPSVSGAPEQRVTISCTGSSSNIGAGHDVHWYQQLPGTAPKLLIYNNNNRPSGVPDRFSGSKSGASASLAISGLQAEDEAEYYCQSYDKSLSVLYVLGTGTKVTV
notes: as for B1
B6: C3054 (antibody, V domains shown)
VH: EVQLVESGGGLGQPGGSLRLSCVASGFSFSTYSMNWVRQAPGKGLEWLSYINAGSTTIYSADSVTGRFSISRDNAKNSLYLHMNSLRADDTAVYYCARGVPFDYWGQGTLVTVSS
VL: DIVMTQTPLSLPVTPGEPASISCRSSRSLLDSDDADTYLDWYLQKPGQSPQLLIYTLSYRASGVPDRFSGSGSGTDFTLKISRVEAEDVGVYYCMQRIQFPWTFGQGTKVEIK
notes: as for B1
B7: C022 (antibody, V domains shown)
VH: QVQLQESGPGLVKPSETLSVTCTVSGGSISSSRYYWGWIRQPPGKGLEWIGSIYYSGSTYYNPSLKSRVTISVDTSKNQFSLKLSSVTAADTAVYYCARHAAAYYDRSGYYFIEYFQHWGQGTLVTVSS
VL: DIQMTQSPSTLSASVGDSVTITCRASQSISSWLAWYQQKPGKAPKLLIYKASSLESGVPSRFSGSGSGTEFTLTISSLQPDDFATYYCQQYNNYRYTFGQGTKLEIK
notes: as for B1
B8: C3123 (antibody, V domains shown)
VH: QVQLQESGPGLVKPSQTLSLTCAVSGDSVSRGGFYWTWIRQLPGMGLECIGYIDYSGSTHYNPSLKSRVTISLDTSNNQFSLKMTSVTAADTALYYCARGAVPGIGWFDPWGQGTLVTVSS
VL: SYELTQPPSVSVAPGKTASISCGGNNIATKSVHWYQQKPGQAPALVIYYDSDRPSGIPERFSGSNSGNTATLTISRVEAGDEAAYYCQVWESSGDHVVFGGGTKLTVL
notes: as for B1
B9: C996 (antibody, V domains shown)
VH: EVQLVESGGGLVQPGGSLRLSCVASGFTSTNYDMHWVRQAPGRGLQWVSSIGTAGDTYYPGSVRGRFTISRENAKNSLDLQMNSLRVGDTAVYYCARGQRGYYDRSGYYWGWRAFDIWGQGTMVTVSS
VL: SYELTQPPSVSVAPGQTARITCGGNNIGNKSVYWYQQKPGQAPVLVVYDDSGRPSGIPERFSGSNSANTATLTISRVEAGDEADYYCQVWDNNSDQFGGGTKLTVL
notes: as for B1
B10: C2588 (antibody, V domains shown)
VH: QVQLVQSGAEVKKPGSSVKVSCKASGDTFNIYAINWVRQAPGQGLEWMGRIIPRFGMANYAQKFQGRVTMTADKSTSTAYMDLISLKSEDTAVYYCATSAYLSGSGHYFDYWGQGTLVTVSS
VL: EIVLTQSPATLSLSPGERATLSCRASQSVGGSFLAWYQQKPGQAPRLLIYGASSRATGIPDRFSGSGSGTDFTLTISRLEPEDFAVYFCQQYASSRTFGQGTKVEIK
notes: as for B1
B11: C3057 (antibody, V domains shown)
VH: QVQLVQSGGGLVQPGGSLRLSCEASGLSVSRNYMRWVRQAPGKGLEWVSLIYSGGSTFYADSVKGRFTISRDNSKNTLYLQMTSLRAEDTAVYYCARDLVDYGMDVWGHGTTVTVSS
VL: DIQLTQSPSFLSASVGDRVTITCRASQGISNYLAWYQQKPGKAPQLLIYAASTLQSGVPSRFSGSGSGTEFTLTISSLQPEDFATYFCQQLNSDVITFGQGTRLEIK
notes: as for B1
B12: C1068 (antibody, V domains shown)
VH: QVQLVESGGGVVQPGRSLRLSCAASGFTFSTFAMHWVRQAPGKGLEWVAVTSYDGSNKYYADSVKGRFTISRDNSKNTLYLQMNSLRAEDTAVYYCARGLLWFGESEYFQHWGQGTLVTVSS
VL: not shown
notes: as for B1
B13: C3060 (antibody, V domains shown)
VH: QVQLQESGPGLLKPSQTLSLICTVSGGSISSGDYYWNWIRQTPGKGLEWIGYIYYSGITYYNPSLKSRLSISLDTPKNQFSLKLTSVTAADTAVYYCATGPPTVTTENFDNWGQGTLVTVSS
VL: QSVLTQPPSVSAAPGQKVTISCSGSSSNIGNYYVSWYQQLPGTAPQLVIYDNNKRPSGIPDRFSGSKSGTSATLAITGLQTGDEADYYCGTWDASLNAGVFGGGTRLTVL
notes: as for B1
B14: C3083 (antibody, V domains shown)
VH: EVQLVESGGGFVRPGGSLRLSCSTSGFTFSMFAMHWVRQAPGKGLEYVSGVSSNGLNTYYADSVKGRLVISRDDSKNTLYLQMTGLRVEDTAVYYCVKDDDFGDPGYGYHLDYWGQGTLVTVSS
VL: QSALTQPASVSGSPGQSITISCTGTSSDVGGYNYVSWFQQHPGKAPKLVIFEVSNRPSGISDRFSGSKSGNTASLTISELQAEDEADYYCSSYTSRIPIIFGTGTKVTV
notes: as for B1
B15: C099 (antibody, V domains shown)
VH: EVQLVESGGGLIQPGGSLRLSCAASGITVSSNYMSWVRQAPGKGLEWVSVMYAGGSTFYADSVKGRFTISRDDSKNTLFLQMNSLRAEDTAIYYCARDLYSSGGTDIWGQGTMVTVSS
VL: EIVLTQSPGTLSLSPGERATLSCRASQSIGSSYLAWYQQKPGLAPRLLIYGASRRATGIPDKFSGSGSGADFTLTISRLEPEDFAVYYCQQYGSSPGTFGQGTKVEIK
notes: as for B1
B16: C2593 (antibody, V domains shown)
VH: QVQLVQSGAEVKKPGSSVKVSCKASGGTFNSYAITWVRQAPGQGLEWMGGIIFIFDTANYAQKFQGRVTITADESTSTVYMELSSLRSEDTAVYYCARPGAELRDHYYYYGMDVWGQGTTVTVSS
VL: DIVMTQSPLSLPVTPGEPASISCRSTQSLLHSNGNNYLDWYLQKPGQSPQLLIYLASNRAPGVPDRFSGSGSGTDFTLRISRVEAEDVGVYYCMQALQTPPTFGQGTRLEIK
notes: as for B1

Target: WT RBD (SARS-CoV-2 Wuhan-Hu-1 spike receptor binding domain) (SARS-CoV-2 (Wuhan-Hu-1), UniProt P0DTC2)
Assay: BLI
Settings: both partners purified

Binder | Kd
B1 | 2.66 nM
B2 | 0.286 nM
B3 | 0.236 nM
B4 | 0.441 nM
B5 | 0.472 nM
B6 | 2.49 nM
B7 | 3.15 nM
B8 | 1.57 nM
B9 | 3.72 nM
B10 | 1.47 nM
B11 | 2.08 nM
B12 | 28.8 nM
B13 | 1.1 nM
B14 | 0.201 nM
B15 | 0.00214 nM
B16 | 1.37 nM
